# Source: patent US5939263
# pIC50: −log10 of the molar value.
# Biological target: murine neuropeptide Y Yx receptor (murine)
# Assay: displacement of ^125 I-PYY (90 pM) from membranes of COS-7 cells transfected with the murine NPY Yx receptor
row,Substance,pIC50
1,peptide YY,7.85
2,NPY(2-36) (peptide),7.80
3,"Leu^31, Pro^34 !NPY (peptide)",8.05
4,Neuropeptide Y,8.22
5,NPY(13-36) (peptide),6.87
